Source: the nanobody polyreactivity screen of Harvey et al. (2022)

Test: yeast display, Sf9 membrane polyspecificity reagent, FACS + sequencing; frameworks hold sequencing errors
Method in brief: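 In a synthetic yeast display library (Saccharomyces cerevisiae BJ5465), nanobody expression was induced with galactose for 36–48 hours. FACS gates were set low and high (top ~1%) using anti-HA fluorescence for expression and streptavidin fluorescence for binding of the Sf9 membrane reagent. Each polyreactivity label is drawn from the gate of origin.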

Sequence	polyreactivity (PSR sort gate)
QVQLVESGGGLVQAGGSLRLSSAAYGSIFTYNAMGWYRQAPGKERELVDTISWRGGSTYYADSVKGRFTISRDNAKNTVYLQMNSLKPEDTAVYYCDKSWRGRYDYWGQGTQVTVSS	high polyreactivity
QVQLVESGGGLVQAGGSLRLSSAGSGFTFYKNAMGWYRQAPGKERELVAAITSSGGSTYYADSVKGRFTISRDNEKNTVYLQMNSLKPEDTAVYYCNKVYSKHYGYWGQGSQVTVSS	high polyreactivity
QVQLVESGGGLVQAGGSLRLSSAPSGFTFDENAMGWYRQAPGINYSGASTYYADSVKGRFTISRDNAKNTVYLQMNSLKPEDTAVYYCAAEVVAQMNYWGQGTQVTVSS	low polyreactivity
QVQLVESGGGLVQAGGSLRLSSASSGSTFWIYAMGWYRQAPGKEREMVASIRRACNTYADSVKGRFTISRDNAKNTVYLQMNSLKPEDTAVYYCNARLYLPYGYRRSNGYESDYWGQGTQVTVSS	high polyreactivity
QVQLVESGGGLVQAGGSLRLSWAASGFTFTSYTMGWYTPAPGKERELVAAISNTGGSTYYADSVKGRFTISRDNAKNTVYLQMNSLKPEDTAVYYCAARTHTYGKFWRYYWGQGTQVTVSS	low polyreactivity
QVQLVESGGGLVQAGGSLRLSWAASGITFRKNAMGWYRQAPGKERQLVATITRRGGSTFYADSVKGRFTISRDNANNTVYLQFKSLKPVDSAVYYFAADYATRDGDYESWGQGTQVTVSS	high polyreactivity
QVQLVESGGGLVQAGGSLRLSWAASGLIFYDNMGWYRQAPGKERELVASISSSGGSTSYADSVKGRFTISRDNAKNTVYLQMNSLKPEDTAVYYCAAVRRGYKYVYWGQGTQVTVSS	low polyreactivity
QVQLVESGGGLVQAGGSLRLSWAASGLIFYWYAMGWYRQAPGKERELVAAINRGGSTYYADSVKGRFTISRDNAKNTVYLQMNSLKPEDTAVYYCAAGGYRGRKRFGWDYTYNYWGQGTQVTVSS	low polyreactivity
QVQLVESGGGLVQAGGSLRLSWAASGLTFTHNAMGWYRQAHGKERELVAAISRRGGSTYYADSVKGRFTISRDNAKNTVYLQRNSLKPEDTAVYYCNAPVKVRATTNWEYDYWGQGTEVTVSS	high polyreactivity
QVQLVESGGGLVQAGGSLRLSWAASGNIFLYYAMGWYRQAPGKERELVPDIDSSGASTYYADSVKGRFTISRDNAKNTVYLQMNSLKPEDTAVYYCAAEFHWWYAGDDYGYWGQGTQVTVSS	low polyreactivity
QVQLVESGGGLVQAGGSLRLSWAASGSFFKRNAMGSYRQAPGKEREFVAAITYNGGSTYYADSVKGRFTISRDNAMTTVYLQMNSLKPEDTAVYDCNNLYSRAQFRGGDYWAQGTQVTVSS	high polyreactivity
QVQLVESGGGLVQAGGSLRLSWAASGSIFQDYAMGWYRQAPGKERDLVAAISSSGTSTYYADSVKGRCTISRDNAKNTVSLQMNSLQPEDTAVFYCAAPPGRVARYDYWGQGTQVTVSS	low polyreactivity
QVQLVESGGGLVQAGGSLRLSWAASGSIFSIYAMGWYRQAPGKERDLVASITRSSGRTYYAYSVKGRFTISRDNAKNNVYLQMNSLKPEDTAVYYCAKDYIPLALDADDYCGQGTQVTVSS	low polyreactivity
QVQLVESGGGLVQAGGSLRLSWAASGSIFYWNAMGWYRQAPGKERELVATITITTSTNYADSVKGRFTISRDNAKNTVYLQMNSLKPEDTAVYYCNAGAPYRYLDEYNYWGQGTQVTVSS	low polyreactivity
QVQLVESGGGLVQAGGSLRLSWAASGSILLGYAMGWYRQAPGKERELVAAISRNGGSTYYADSVKGRFTISRDNAKNTVYLQMNSLKPEDTAVYYCNKYSGYKGTDGGDYWGQGTQVTVSS	low polyreactivity
QVQLVESGGGLVQAGGSLRLSWAASGYTFGKNAMGWYRQAPGKERELVAAISRSGGSTFYADSVKGRFTISRDNAKNTVYLQMNSLKPEDTAVYYCAAESYGYSAPYDYWGQGTQVTVSS	high polyreactivity
QVQLVESGGGLVQAGGSLRLSYAASGSIFGRYVMGWYRQAPGKERELVAAIKRSGGRTYYADSVKGRFTISRDNAKNTVYLQMNSLKPEDTAVYYCATYTGYSASKEVPYDYWGQGTQVTVSS	high polyreactivity
QVQLVESGGGLVQAGGSLRLTCAASAFIFHFNAMGWYRQAPGKERELVAAISRTGGTTYYADSVKGRFTISRDNAKNTVYLQMNSLKPEDTAVYYCAAYSKYGQHYDYWGQGTQVTVSS	high polyreactivity
QVQLVESGGGLVQAGGSLRLTCAASGFIFDTYAMGWYRQAPGKERELVAAISWTGTDTYYADSVKGRFTISRDNAKNTVYLQMNSLKPEDTAVYYCAARSRYKYSPSGDYWGQGTQVTVSS	high polyreactivity
QVQLVESGGGLVQAGGSLRLTCAASGFIFPNNAMGWYRQAPGKESELVAAISYSGGSTNYADSVKARFTISRDNAKNTVYLQMNSLKPEDTAVYYCAKADPAYLWGLREYDYWGQGTQVTVSS	low polyreactivity
QVQLVESGGGLVQAGGSLRLTCAASGFIFYYYTIGWYRQAPGKERELVAAIRTDGNTYYADSVKGRFTISRDNAKNTVYFQMNSLKPEDTAVYYCAAKIPRPYAMDYWGQGTQVTVSS	low polyreactivity
QVQLVESGGGLVQAGGSLRLTCAASGFIYADNAMGWDRQAPGQERELVAAISGSGGGTYYADSVKGRFTISRDNAKNTVYLQMNSLKPEDTAVYYCAKSQYHRFDYWGQGTQVTVSS	low polyreactivity

Sequence	polyreactivity (PSR sort gate)
QVQLVESGGGLVQAGGSLRLTCAASGFTFHNYAMGWYRQAPGKERELVAVIRWRGGSTYYADSVKGRFTISRDNAKNTVYLQMNSLKPEDTAVYYCAKRARGSYYWGYNYWGQGTQVTVSS	high polyreactivity
QVQLVESGGGLVQAGGSLRLTCAASGFTFHSYAMGWYRQSPGTERELVAAISARGGSTYYADSVKGRLTISRDNAKNTVYLQMNSLKPEDTAFYYCAAYSYQVRFYYWGQGTQVTVSS	high polyreactivity
QVQLVESGGGLVQAGGSLRLTCAASGFTFRRYAMGCYRKAPGKERLLVAAISYSGGITYYADSVKGRFTISRDNAKNTVYLHMNSLKAEDTAVYYCAADYFAPYKTYDYWGQGTQVTVSS	high polyreactivity
QVQLVESGGGLVQAGGSLRLTCAASGGILYYNAMGWYRQAPGKEREVVAAISRSGITYYADSVKGRFTISRDNAKNTVYLQMNSLKPEDTAVYYSNTVPWRRWGYDYWGQGTQVTVSS	high polyreactivity
QVQLVESGGGLVQAGGSLRLTCAASGGTFQYYSMGWYRQAPGKERELVAAITTSGGSTYYADSVKGRFTISRDNAKNTDYLQMNSLKPEDTAVYYCAAGRGYRGYVRYYYWGQGTQVTVSS	high polyreactivity
QVQLVESGGGLVQAGGSLRLTCAASGGTFRLYAMGWYRQAPGKERELVAAISSTGSTYYAASVKGRFTISRDNAKNTVYLQMNSLKPEDTAVYYCNAKLPVTSLKFDYYYWGQGTQVTVSS	high polyreactivity
QVQLVESGGGLVQAGGSLRLTCAASGIIFKLYAMGWYRQAPGKEREFVATITKTGGRTYYADSVKGRFTISRDNAKNTVYLQMNSLKPEDTAVDYCAARRVNGKMYYWGQGTQVTVSS	high polyreactivity
QVQLVESGGGLVQAGGSLRLTCAASGITFFQYAMGWYRQAPGKERELVAAITWSGGDTYYADSVKGRFTISRDNAKITVYLQMNSLKPEDTAVYYCAAEYVVQYYVYGYTLGYDYWGQGTQVTVSS	high polyreactivity
QVQLVESGGGLVQAGGSLRLTCAASGITFTSYVMGWYRQAPGKERELVAAIRWSGGRTYYADSVKGRFTISRDNAKNSVYLQMNSLKPEDTAVYYCNRVTRSHVDYWGQGTQVTVSS	high polyreactivity
QVQLVESGGGLVQAGGSLRLTCAASGITFYSYAMGWYRQAPGKERELVAAITRSGGSTYYADSVKGRFTISRDNAKNTVYLQMNSLKPEDTAVYYCAADEGRVFSGGYDYWGQGTQVTVSS	high polyreactivity
QVQLVESGGGLVQAGGSLRLTCAASGLIFFTPYALGWYRQAPGTESELVAVITWRGASTYYADSVKGRFTISRDNAKHTVYFQMNSLKPEDTAVYYCAAKLCSVWKESYDSWGQGTQVTVSS	low polyreactivity
QVQLVESGGGLVQAGGSLRLTCAASGLILDGYAMGWYRQAPGKERELVAAITRSGGRTYYADSVKGRFTISRDNAKNTVYLQMNSLKPEDTAVDYCAADTYRYHLIATDDYWGQGTQVTVSS	high polyreactivity
QVQLVESGGGLVQAGGSLRLTCAASGLISTPNALGWYRQAPGKEREFVASISSRGGSTYYADSVKGRFTISRDNAMNTVYLQMNSLKPEDTAVYYCAADAYREFYYEYYYWGQGTQVTVSS	low polyreactivity
QVQLVESGGGLVQAGGSLRLTCAASGLTFPKYAMGWYRQAPGKERELVAAITQRGGSTYYADSVKGRFTISRDNAKNTVYLQMNSLKPEDTAVYYCNARRRDYNNRREFDYWGQGTQVTVSS	high polyreactivity
QVQLVESGGGLVQAGGSLRLTCAASGLTFRSYTMRWYRQAPGTERELVAAITFRGGSTYYADSLKGRFTISRDNAKNTVYLQMNSLKPEDTAVYYSAAVAIRRSVPVPRFDYWGQGTQVTVSS	high polyreactivity
QVQLVESGGGLVQAGGSLRLTCAASGLTFTTYALGWYRQAPGKERELVAAISRRGSRTYYADSVKGRFTISRDNAKNTVYLQMNSLKPEDTAVYYCNALTGSFKTYSFDYWGQGTQVTVSS	high polyreactivity
QVQLVESGGGLVQAGGSLRLTCAASGNIFISYAMGWYRQAPGKEMELVAAISRSGGSTYYADSVKGRFTISRDNEKNSVYLLMNSLKPEDTAVYYCAAYIGQGRYGSWGQGTQVNVSS	high polyreactivity
QVQLVESGGGLVQAGGSLRLTCAASGNTFNNNAMGWYRQAPGKERELVAAISGSGGSTYYADSVKGRFTISRDNAKNTVYLQMNSLKPEDTAVYYCAVRLVHGGKRYGYWGQGTQVTVSS	high polyreactivity
QVQLVESGGGLVQAGGSLRLTCAASGRIFKRYVMGWYRQAPGKERELVAAISVRGASTYYADSVKGRFTISRDHAKNTVYLQMNSLKPEDTAVYYCATAGYRLLDYWGQGTQVTVSS	high polyreactivity
QVQLVESGGGLVQAGGSLRLTCAASGRIFNYYAMGWYRQAPGKERELVAVITYSAGRTYYADSVKGRFTLSRDNAKNTVYLEMNSLKPEDTAVYYCNADGWVSVSKHYYYWGQGTQVTVSS	low polyreactivity
QVQLVESGGGLVQAGGSLRLTCAASGRIFTGYAMGWYRQAPWKERELVAAISRGSSTYADSVKGRFTISRDNAKNTVYLQRNSLKPEDTAVYYCAAKWRAADWWPRTSQYDYWGQGTQVTVSS	high polyreactivity
